Results on one molecule are retold here after patent US20220411516A1 (Amgen, published 2022).

This assay addresses T1, EGFRvIII (Epidermal Growth Factor Receptor Variant III) (human, UniProt P00533 298-1210).
T1 construct: also called Human EFGRvIII; de2-7EGFR
Kind of assay: IHC staining, titration of the primary antibody (5.5, 2.75, 1.375 µg/ml).

B1: EGFRvIII antibody 1 (antibody, mouse IgG1, kappa, V domains shown)
VH: QVQLVESGGGVVQPGRSLRLSCAASGFTFSSYGMHWVRQAPGKGLEWVAVIWYDGSNKYYVDSVKGRFTISRDNSKNTLYLQMNSLRAEDTAVYYCARDGWQQLAPFDYWGQGTLVTVSA
VL: not shown
notes: also called first antibody; primary antibody
As for B1, the binding result is “binds”.
